How the values were obtained:
[1] = biological target: Albumin on negative control beads (serum albumin, HSA/BSA) (human or bovine); experiment: Luminex, iBead MFI against regular bead MFI, 1:8
[2] = biological target: Albumin on negative control beads (serum albumin, HSA/BSA) (human or bovine); experiment: Luminex single antigen beads, regular beads (#7), 1:8
[3] = biological target: HLA-A*0301 (A3) on single antigen beads (human) (UniProt P04439); experiment: as above
[4] = biological target: HLA-B*4006 (B61) single antigen on Luminex beads (human); experiment: Luminex single antigen, iBead vs regular bead, IVIg 1:8
[5] = biological target: HLA-B*4601 (B46) single antigen on Luminex beads (human); experiment: as above
[6] = biological target: HLA-B*4201 (B42) single antigen on Luminex beads (human); experiment: as above
[7] = biological target: HLA-B*2705 (B27) single antigen on Luminex beads (human); experiment: as above
[8] = biological target: HLA-B*3501 (B35) single antigen on Luminex beads (human); experiment: as above
[9] = biological target: HLA-B*3701 (B37) single antigen on Luminex beads (human); experiment: as above
[10] = biological target: HLA-B*4402 (B44) single antigen on Luminex beads (human); experiment: as above
[11] = biological target: HLA-B*4002 (B61) single antigen on Luminex beads (human); experiment: as above
[12] = biological target: HLA-B*3801 (B38) single antigen on Luminex beads (human); experiment: as above
[13] = biological target: HLA-B*4701 (B47) single antigen on Luminex beads (human); experiment: as above
[14] = biological target: HLA-B*4501 (B45) single antigen on Luminex beads (human); experiment: as above
[15] = biological target: HLA-B*4403 (B44) single antigen on Luminex beads (human); experiment: as above
[16] = biological target: HLA-B*4006 (B61) single antigen on Luminex beads (human); experiment: Luminex single antigen, iBeads (#6), IVIg 1:8
[17] = biological target: HLA-B*4601 (B46) single antigen on Luminex beads (human); experiment: Luminex single antigen, iBeads (#6), IVIg 1:8
[18] = biological target: HLA-B*2708 (B27) single antigen on Luminex beads (human); experiment: Luminex single antigen, iBeads (#6), IVIg 1:8
[19] = biological target: HLA-B*4201 (B42) single antigen on Luminex beads (human); experiment: Luminex single antigen, iBeads (#6), IVIg 1:8
[20] = biological target: HLA-B*2705 (B27) single antigen on Luminex beads (human); experiment: Luminex single antigen, iBeads (#6), IVIg 1:8
[21] = biological target: HLA-B*3501 (B35) single antigen on Luminex beads (human); experiment: Luminex single antigen, iBeads (#6), IVIg 1:8
[22] = biological target: HLA-B*3701 (B37) single antigen on Luminex beads (human); experiment: Luminex single antigen, iBeads (#6), IVIg 1:8
[23] = biological target: HLA-B*4402 (B44) single antigen on Luminex beads (human); experiment: Luminex single antigen, iBeads (#6), IVIg 1:8
[24] = biological target: HLA-B*4101 (B41) single antigen on Luminex beads (human); experiment: Luminex single antigen, iBeads (#6), IVIg 1:8
[25] = biological target: HLA-B*3901 (B39) single antigen on Luminex beads (human); experiment: Luminex single antigen, iBeads (#6), IVIg 1:8
[26] = biological target: HLA-B*4002 (B61) single antigen on Luminex beads (human); experiment: Luminex single antigen, iBeads (#6), IVIg 1:8
[27] = biological target: HLA-B*3801 (B38) single antigen on Luminex beads (human); experiment: Luminex single antigen, iBeads (#6), IVIg 1:8
[28] = biological target: HLA-B*4701 (B47) single antigen on Luminex beads (human); experiment: Luminex single antigen, iBeads (#6), IVIg 1:8
[29] = biological target: HLA-B*4501 (B45) single antigen on Luminex beads (human); experiment: Luminex single antigen, iBeads (#6), IVIg 1:8
[30] = biological target: HLA-B*4403 (B44) single antigen on Luminex beads (human); experiment: Luminex single antigen, iBeads (#6), IVIg 1:8
[31] = biological target: HLA-B*4006 (B61) single antigen on Luminex beads (human); experiment: Luminex single antigen, regular beads (#7), IVIg 1:8
[32] = biological target: HLA-B*4601 (B46) single antigen on Luminex beads (human); experiment: as above
[33] = biological target: HLA-B*2708 (B27) single antigen on Luminex beads (human); experiment: as above
[34] = biological target: HLA-B*4201 (B42) single antigen on Luminex beads (human); experiment: as above
[35] = biological target: HLA-B*2705 (B27) single antigen on Luminex beads (human); experiment: as above
[36] = biological target: HLA-B*4001 (B60) single antigen on Luminex beads (human); experiment: as above
[37] = biological target: HLA-B*3501 (B35) single antigen on Luminex beads (human); experiment: as above
[38] = biological target: HLA-B*3701 (B37) single antigen on Luminex beads (human); experiment: as above
[39] = biological target: HLA-B*4402 (B44) single antigen on Luminex beads (human); experiment: as above
[40] = biological target: HLA-B*4101 (B41) single antigen on Luminex beads (human); experiment: as above
[41] = biological target: HLA-B*3901 (B39) single antigen on Luminex beads (human); experiment: as above
[42] = biological target: HLA-B*4002 (B61) single antigen on Luminex beads (human); experiment: as above
[43] = biological target: HLA-B*3801 (B38) single antigen on Luminex beads (human); experiment: as above
[44] = biological target: HLA-B*4701 (B47) single antigen on Luminex beads (human); experiment: as above
[45] = biological target: HLA-B*4501 (B45) single antigen on Luminex beads (human); experiment: as above
[46] = biological target: HLA-B*4403 (B44) single antigen on Luminex beads (human); experiment: as above
[47] = biological target: Albumin on negative control beads (serum albumin, HSA/BSA) (human or bovine); experiment: Luminex single antigen beads, iBeads (#6), 1:8
[48] = biological target: HLA-A*6901 (A69) single antigen on Luminex beads (human); experiment: Luminex single antigen bead assay, iBeads (#6), IVIg 1:8
[49] = biological target: HLA-A*7401 (A74) single antigen on Luminex beads (human); experiment: as above
[50] = biological target: HLA-A*8001 (A80) single antigen on Luminex beads (human); experiment: as above
[51] = biological target: HLA-A*6802 (A68) single antigen on Luminex beads (human); experiment: as above
[52] = biological target: HLA-A*6901 (A69) single antigen on Luminex beads (human); experiment: Luminex single antigen bead assay, regular beads (#7), IVIg 1:8
[53] = biological target: HLA-A*7401 (A74) single antigen on Luminex beads (human); experiment: as above
[54] = biological target: HLA-A*8001 (A80) single antigen on Luminex beads (human); experiment: as above
[55] = biological target: HLA-A*6802 (A68) single antigen on Luminex beads (human); experiment: as above
[56] = biological target: HLA-A*6901 (A69) single antigen on Luminex beads (human); experiment: Luminex single antigen bead assay, iBeads vs regular beads, IVIg 1:8
[57] = biological target: HLA-A*7401 (A74) single antigen on Luminex beads (human); experiment: as above
[58] = biological target: HLA-A*8001 (A80) single antigen on Luminex beads (human); experiment: as above
[59] = biological target: HLA-A*6802 (A68) single antigen on Luminex beads (human); experiment: as above

**Q.** Which results are given for Gamunex-C Lot NKLG1 (IVIg) (antibody)?
**A.** Difference % (iBead against regular bead) [1]: -34%; MFI [2]: 10800 MFI; MFI [3]: 0 MFI; Difference % (iBead against regular bead MFI) [4]: -60%; Difference % (iBead against regular bead MFI) [5]: 17%; Difference % (iBead against regular bead MFI) [6]: 139%; Difference % (iBead against regular bead MFI) [7]: 327%; Difference % (iBead against regular bead MFI) [8]: -3%; Difference % (iBead against regular bead MFI) [9]: -41%; Difference % (iBead against regular bead MFI) [10]: -71%; Difference % (iBead against regular bead MFI) [11]: 195%; Difference % (iBead against regular bead MFI) [12]: 1%; Difference % (iBead against regular bead MFI) [13]: 10%; Difference % (iBead against regular bead MFI) [14]: 91%; Difference % (iBead against regular bead MFI) [15]: 116%; MFI [16]: 2140 MFI; MFI [17]: 3540 MFI; MFI [18]: 1340 MFI; MFI [19]: 1090 MFI; MFI [20]: 1660 MFI; MFI [21]: 1610 MFI; MFI [22]: 3640 MFI; MFI [23]: 1870 MFI; MFI [24]: 1490 MFI; MFI [25]: 242 MFI; MFI [26]: 1680 MFI; MFI [27]: 1380 MFI; MFI [28]: 2800 MFI; MFI [29]: 2110 MFI; MFI [30]: 2400 MFI; MFI [31]: 5390 MFI; MFI [32]: 3010 MFI; MFI [33]: 0 MFI; MFI [34]: 455 MFI; MFI [35]: 388 MFI; MFI [36]: 1680 MFI; MFI [37]: 1670 MFI; MFI [38]: 6130 MFI; MFI [39]: 6460 MFI; MFI [40]: 716 MFI; MFI [41]: 0 MFI; MFI [42]: 569 MFI; MFI [43]: 1360 MFI; MFI [44]: 2550 MFI; MFI [45]: 1110 MFI; MFI [46]: 1110 MFI; MFI [47]: 7150 MFI

**Q.** “IVIg GamaSTAN S/D (Talecris Biotherapeutics, Inc., USA) (antibody)” was tested. Which MFI [48] did it give?
**A.** The MFI was 2410 MFI.

**Q.** And the MFI [49]?
**A.** Its MFI is 431 MFI.

**Q.** What about the MFI [50] of the same substance?
**A.** Its MFI is 2850 MFI.

**Q.** And the MFI [51]?
**A.** Its MFI is 2080 MFI.

**Q.** And the MFI [52]?
**A.** The MFI was 1880 MFI.

**Q.** And the MFI [53]?
**A.** The MFI was 80 MFI.

**Q.** And the MFI [54]?
**A.** Its MFI is 2700 MFI.

**Q.** And the MFI [55]?
**A.** Its MFI is 2060 MFI.

**Q.** What about the Difference % (iBead MFI against regular bead MFI) [56] of the same substance?
**A.** Its Difference % (iBead MFI against regular bead MFI) is 28%.

**Q.** And the Difference % (iBead MFI against regular bead MFI) [57]?
**A.** Its Difference % (iBead MFI against regular bead MFI) is 437%.

**Q.** And the Difference % (iBead MFI against regular bead MFI) [58]?
**A.** Its Difference % (iBead MFI against regular bead MFI) is 5%.

**Q.** And the Difference % (iBead MFI against regular bead MFI) [59]?
**A.** Its Difference % (iBead MFI against regular bead MFI) is 1%.

Source: patent US10800847
